The assay concerns the target T1, human ICOS (Inducible T-cell COStimulator) receptor on peripheral CD4 and CD8 T cells (human, UniProt Q9Y6W8 21-199).
T1 construct: Native ICOS on T cells of treated subjects; also called ICOS receptor; CD278
T1 sequence: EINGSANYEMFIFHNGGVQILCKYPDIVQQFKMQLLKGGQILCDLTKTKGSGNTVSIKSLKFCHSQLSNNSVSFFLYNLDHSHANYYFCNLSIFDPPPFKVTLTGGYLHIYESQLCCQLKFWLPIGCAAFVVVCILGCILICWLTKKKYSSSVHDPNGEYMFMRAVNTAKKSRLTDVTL
The experiment in a line: ICOS receptor occupancy on peripheral CD4 and CD8 T cells of dosed subjects (clinical pharmacodynamic analysis).

B1: H2L5 hIgG4PE (antibody, V domains shown)
VH: QVQLVQSGAEVKKPGSSVKVSCKASGYTFTDYAMHWVRQAPGQGLEWMGLISIYSDHTNYNQKFQGRVTITADKSTSTAYMELSSLRSEDTAVYYCGRNNYGNYGWYFDVWGQGTTVTVSS
VL: EIVLTQSPATLSLSPGERATLSCSASSSVSYMHWYQQKPGQAPRLLIYDTSKLASGIPARFSGSGSGTDYTLTISSLEPEDFAVYYCFQGSGYPYTFGQGTKLEIKR
notes: Humanized IgG4PE (S228P, L235E) monoclonal antibody; also called H2L5 IgG4PE; feladilimab
As for B1, the binding result was “binds”.

(Values after US20230149543A1 (GlaxoSmithKline, published 2023).)
